According to publication PMC5863699, “Sensing iron availability via the fragile [4Fe–4S] cluster of the bacterial transcriptional repressor RirA† †Electronic supplementary information (ESI) available. See DOI: 10.1039/c7sc02801f” (Chemical Science, 2017):

Molecular target: the molecule itself
Assay: native MS; ESI-MS under non-denaturing conditions, positive ion mode; cluster-reconstituted [4Fe–4S] RirA, ~30 μM in cluster, 250 mM ammonium acetate pH 7.3; monomer to dimer

B1: Rhizobial iron regulator A (RirA) from Rhizobium leguminosarum (natural protein, UniProt Q9AE46 1-160, looked up)
chain: MRLTKQTNYAVRMLMYCAANDGHLSRIPEIAKAYGVSELFLFKILQPLNKAGLVETVRGRNGGVRLGKPAADISLFDVVRVTEDSFAMAECFEDDGEVECPLVDSCGLNSALRKALNAFFAVLSEYSIDDLVKARPQINFLLGITGEPAYRKPAIVAPAA
notes: RirA, Rhizobium leguminosarum strain 8401 (pRL1JI), rirA gene CAC35510, codon-optimised for E. coli; calculated mass of the monomer 17.4 kDa (apo predicted 17 442 Da, observed 17 441 Da); No tag is mentioned; It carries an iron–sulfur cluster as cofactor: [4Fe–4S] after reconstitution, and mainly [2Fe–2S] after 1 mM EDTA for 2.5 h; Less than 5% of the preparation was truncated, lacking 20 …
Q: Which “stoichiometry N” value does the source give for B1 here?
A: 2
